Measurements published in article PMC6746701, “A phyB-PIF1-SPA1 kinase regulatory complex promotes photomorphogenesis in Arabidopsis” (Nature Communications, 2019).

B1: phyB-GFP ΔC holoprotein (Pichia pastoris purified) (domain or fragment, Arabidopsis, UniProt P14713 1-1092, looked up)
chain: MVSGVGGSGGGRGGGRGGEEEPSSSHTPNNRRGGEQAQSSGTKSLRPRSNTESMSKAIQQYTVDARLHAVFEQSGESGKSFDYSQSLKTTTYGSSVPEQQITAYLSRIQRGGYIQPFGCMIAVDESSFRIIGYSENAREMLGIMPQSVPTLEKPEILAMGTDVRSLFTSSSSILLERAFVAREITLLNPVWIHSKNTGKPFYAILHRIDVGVVIDLEPARTEDPALSIAGAVQSQKLAVRAISQLQALPGGDIKLLCDTVVESVRDLTGYDRVMVYKFHEDEHGEVVAESKRDDLEPYIGLHYPATDIPQASRFLFKQNRVRMIVDCNATPVLVVQDDRLTQSMCLVGSTLRAPHGCHSQYMANMGSIASLAMAVIINGNEDDGSNVASGRSSMRLWGLVVCHHTSSRCIPFPLRYACEFLMQAFGLQLNMELQLALQMSEKRVLRTQTLLCDMLLRDSPAGIVTQSPSIMDLVKCDGAAFLYHGKYYPLGVAPSEVQIKDVVEWLLANHADSTGLSTDSLGDAGYPGAAALGDAVCGMAVAYITKRDFLFWFRSHTAKEIKWGGAKHHPEDKDDGQRMHPRSSFQAFLEVVKSRSQPWETAEMDAIHSLQLILRDSFKESEAAMNSKVVDGVVQPCRDMAGEQGIDELGAVAREMVRLIETATVPIFAVDAGGCINGWNAKIAELTGLSVEEAMGKSLVSDLIYKENEATVNKLLSRALRGDEEKNVEVKLKTFSPELQGKAVFVVVNACSSKDYLNNIVGVCFVGQDVTSQKIVMDKFINIQGDYKAIVHSPNPLIPPIFAADENTCCLEWNMAMEKLTGWSRSEVIGKMIVGEVFGSCCMLKGPDALTKFMIVLHNAIGGQDTDKFPFPFFDRNGKFVQALLTANKRVSLEGKVIGAFCFLQIPSPELQQALAVQRRQDTECFTKAKELAYICQVIKNPLSGMRFANSLLEATDLNEDQKQLLETSVSCEKQISRIVGDMDLESIEDGSFVLKREEFFLGSVINAIVSQAMFLLRDRGLQLIRDIPEEIKSIEVFGDQIRIQQLLAEFLLSIIRYAPSQEWVEIHLSQLSKQMADGFAAIRTEFRMACP
modifications: holoprotein (chromophore bound)
notes: phytochrome B (phyB), Arabidopsis, residues 1-1092 (lacks the last 80 amino acids); source: Pichia pastoris, purified; not shown: GFP, C-terminal, kept
B2: phyB-GFP FL holoprotein (Pichia pastoris purified) (receptor, Arabidopsis, UniProt P14713 1-1172, looked up)
chain: MVSGVGGSGGGRGGGRGGEEEPSSSHTPNNRRGGEQAQSSGTKSLRPRSNTESMSKAIQQYTVDARLHAVFEQSGESGKSFDYSQSLKTTTYGSSVPEQQITAYLSRIQRGGYIQPFGCMIAVDESSFRIIGYSENAREMLGIMPQSVPTLEKPEILAMGTDVRSLFTSSSSILLERAFVAREITLLNPVWIHSKNTGKPFYAILHRIDVGVVIDLEPARTEDPALSIAGAVQSQKLAVRAISQLQALPGGDIKLLCDTVVESVRDLTGYDRVMVYKFHEDEHGEVVAESKRDDLEPYIGLHYPATDIPQASRFLFKQNRVRMIVDCNATPVLVVQDDRLTQSMCLVGSTLRAPHGCHSQYMANMGSIASLAMAVIINGNEDDGSNVASGRSSMRLWGLVVCHHTSSRCIPFPLRYACEFLMQAFGLQLNMELQLALQMSEKRVLRTQTLLCDMLLRDSPAGIVTQSPSIMDLVKCDGAAFLYHGKYYPLGVAPSEVQIKDVVEWLLANHADSTGLSTDSLGDAGYPGAAALGDAVCGMAVAYITKRDFLFWFRSHTAKEIKWGGAKHHPEDKDDGQRMHPRSSFQAFLEVVKSRSQPWETAEMDAIHSLQLILRDSFKESEAAMNSKVVDGVVQPCRDMAGEQGIDELGAVAREMVRLIETATVPIFAVDAGGCINGWNAKIAELTGLSVEEAMGKSLVSDLIYKENEATVNKLLSRALRGDEEKNVEVKLKTFSPELQGKAVFVVVNACSSKDYLNNIVGVCFVGQDVTSQKIVMDKFINIQGDYKAIVHSPNPLIPPIFAADENTCCLEWNMAMEKLTGWSRSEVIGKMIVGEVFGSCCMLKGPDALTKFMIVLHNAIGGQDTDKFPFPFFDRNGKFVQALLTANKRVSLEGKVIGAFCFLQIPSPELQQALAVQRRQDTECFTKAKELAYICQVIKNPLSGMRFANSLLEATDLNEDQKQLLETSVSCEKQISRIVGDMDLESIEDGSFVLKREEFFLGSVINAIVSQAMFLLRDRGLQLIRDIPEEIKSIEVFGDQIRIQQLLAEFLLSIIRYAPSQEWVEIHLSQLSKQMADGFAAIRTEFRMACPGEGLPPELVRDMFHSSRWTSPEGLGLSVCRKILKLMNGEVQYIRESERSYFLIILELPVPRKRPLSTASGSGDMMLMMPY
modifications: holoprotein (chromophore bound)
notes: phytochrome B (phyB), Arabidopsis, full length; the host named for this assay is Pichia pastoris; source: Pichia pastoris, purified; not shown: GFP, C-terminal, kept

Target: the molecule itself
Assay: native gel or EMSA; 5 µg holoprotein on a native 6% PAGE gel, 4 °C, 100 V, 3 h, Coomassie; dimerisation

| Protein | binding result |
| --- | --- |
| B1 | binds |
| B2 | binds |
